Test results taken from US20110002929A1 (Ablynx, published 2011).
Like-named read-outs stand apart in the source and are kept apart here.

T1: human RANK-L (human, UniProt O14788 140-317, limits assumed)
T1 construct: Soluble protein, used coated, biotinylated or labelled in ELISA, AlphaScreen, FMAT and Biacore; also called hRANK-L; soluble human RANK-L
T1 sequence (looked up): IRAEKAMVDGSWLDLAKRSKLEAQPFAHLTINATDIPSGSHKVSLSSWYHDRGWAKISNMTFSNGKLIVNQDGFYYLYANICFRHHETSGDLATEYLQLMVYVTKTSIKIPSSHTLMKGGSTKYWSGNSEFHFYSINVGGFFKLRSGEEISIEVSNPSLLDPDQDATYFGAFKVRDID

T2: mouse RANK-L (mouse, UniProt O35235 158-316, limits assumed)
T2 construct: also called murine RANK-L
T2 sequence (looked up): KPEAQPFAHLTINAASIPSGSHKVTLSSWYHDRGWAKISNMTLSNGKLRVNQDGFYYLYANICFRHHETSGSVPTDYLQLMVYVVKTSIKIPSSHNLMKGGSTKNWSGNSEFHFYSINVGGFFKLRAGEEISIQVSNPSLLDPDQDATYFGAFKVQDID


Assays:
human RANK-L [1] = molecular target: T1, human RANK-L; assay: AlphaScreen, biotin-hRANK-L / RANK-huFc beads
Experimental: To this mixture, the RANK acceptor beads and the streptavidin donor beads were added and further incubated for 1 hour at room temperature. Fluorescence was measured by reading plates on the EnVision Multilabel Plate Reader (Perkin Elmer) using an excitation wavelength of 680 nm and an emission wavelength of 520 nm.

mouse RANK-L = molecular target: T2, mouse RANK-L; assay: ELISA, set-up as for human RANK-L
Experimental: (§1) Therefore 2 μg/ml neutravidin was coated overnight at 4° C. The plates were washed 5 times with 300 μl PBS and then blocked with […] 1% casein/PBS for 2 hours at room temperature. […] After extensive washing with PBS, varying concentrations of Nanobodies starting from 500 nM to 160 pM diluted in 1% casein/PBS were added to the wells and the plates were incubated for 1 hour at room temperature. Bound Nanobodies were detected by subsequent incubations of a primary mouse anti-myc antibody and a secondary anti mouse-HRP conjugate (DAKO, Glostrup, Denmark) and using TMB-H2O2 (Pierce, Rockford, Ill., USA) substrate cocktail. The reaction was stopped with H₂SO₄ and the OD was read at 450 nm.

human RANK-L [2] = molecular target: T1, human RANK-L; assay: ELISA (ED50), biotin-hRANK-L on neutravidin
Experimental: as §1

human RANK-L [3] = molecular target: T1, human RANK-L; assay: AlphaScreen, biotin-hRANK-L / RANK-huFc beads; remark: listed apart in the source
human RANK-L [4] = molecular target: T1, human RANK-L; assay: SPR Biacore 3000, hRANK-L on CM5, 100 nM Nanobody; only indicative (one concentration)
Experimental: (§2) Binding kinetics of the humanized versions of Nanobodu RANL13 were also analysed by Surface Plasmon Resonance (Biacore 3000). […] Nanobody binding was assessed at one concentration (100 nM). Each Nanobody was injected for 4 minutes at a flow rate of 45 μl/min to allow binding to chip-bound antigen. Next, binding buffer without Nanobody was sent over the chip at the same flow rate to allow spontaneous dissociation of bound Nanobody.

human RANK-L [5] = molecular target: T1, human RANK-L; assay: SPR Biacore 3000, hRANK-L on CM5, 100 nM Nanobody
Experimental: as §2

human RANK-L [6] = molecular target: T1, human RANK-L; assay: AlphaScreen, biotin-hRANK-L / RANK-huFc beads; remark: listed apart in the source

| Binder | IC50 (human RANK-L [1]) [nM] | binding result (mouse RANK-L) | EC50 (human RANK-L [2]) [nM] | IC50 (human RANK-L [3]) [nM] | Kd (human RANK-L [4]) [nM] | kon (human RANK-L [4]) [M⁻¹ s⁻¹] | koff (human RANK-L [5]) [s⁻¹] | IC50 (human RANK-L [6]) [nM] |
| --- | --- | --- | --- | --- | --- | --- | --- | --- |
| RANKL14 (VHH, not shown: c-myc and His6 tags) VHH: EVQLVESGGGLVQAGGSLRLSCAASGRTSSYYTMSWFRQDPGKEREFVAAVPLSGNTYYADPVRGRFTISRDNAKNTADLQMNSLKPEDTAVYYCAARASGSIYNRGSYAYWGQGTQVTVSS | 1.75 | no binding (tested: 500 nM to 160 pM) | 0.574 |  |  |  |  |  |
| RANKL13basic (VHH, Humanized variant of RANKL13; also called RANKL13humbasic) VHH: EVQLVESGGGLVQPGGSLRLSCAASGRTFRSYPMGWFRQAPGKGREFVASITGSGGSTYYADSVKGRFTISRDNAKNTLYLQMNSLRPEDTAVYSCAAYIRPDTYLSRDYRKYDYWGQGTLVTVSS |  |  |  | 0.159 | 0.214 | 885000 | 0.000189 |  |
| RANKL13hum1 (VHH) VHH: EVQLVESGGGLVQPGGSLRLSCAASGFTFRSYPMGWFRQAPGKGREFVASITGSGGSTYYADSVKGRFTISRDNAKNTLYLQMNSLRPEDTAVYSCAAYIRPDTYLSRDYRKYDYWGQGTLVTVSS |  |  |  | 0.123 | 0.106 | 1.37e+06 | 0.000145 |  |
| RANKL13hum2 (VHH, name in Kabat numbering) VHH: EVQLVESGGGLVQPGGSLRLSCAASGRTFSSYPMGWFRQAPGKGREFVASITGSGGSTYYADSVKGRFTISRDNAKNTLYLQMNSLRPEDTAVYSCAAYIRPDTYLSRDYRKYDYWGQGTLVTVSS |  |  |  | 0.191 | 0.88 | 264000 | 0.000232 |  |
| RANKL16 (VHH, not shown: c-myc and His6 tags) VHH: EVQLVESGGGLVQAGGSLRLSCVASRRTFSSYAMGWFRQVPGKERDFVAAISTGSITIYGDSVKGRFTISRDNAKNTVYLQMNSLKPEDTAVYYCAAGKREPYLRQYTASNPYDYWGQGTQVTVSS | 2.25 | no binding (tested: 500 nM to 160 pM) | 0.953 |  |  |  |  |  |
| RANKL21 (VHH, not shown: c-myc and His6 tags) VHH: EVQLVESGGGLVQAGGSLRLSCVASRRTFNSYAVGWFRQVPGEERDFVAAISTGSVTIYADSVKGRFTISRDNAKNTVYLQMNSLKPEDTAVYYCAAGNREPYLRQYTASNPYDYWGQGTQVTVSS | 1.58 | no binding (tested: 500 nM to 160 pM) | 0.861 |  |  |  |  |  |
| RANKL19 (VHH, not shown: c-myc and His6 tags) VHH: EVQLVESGGGLVQAGDSLRLSCAASGRTVTMGWFRQAPGKEREFVASITGSGSVTNYADSVKGRFTISRDNAKNTVFLQMNSLKPEDTAVYYCAAYLPSPYYSSYYDSTKYEYWGQGTQVTVSS | 2.24 | no binding (tested: 500 nM to 160 pM) | 0.506 |  |  |  |  |  |
| RANKL20 (VHH, not shown: c-myc and His6 tags) VHH: EVQLVESGGGLVQAGDSLRLSCAASGRTFTMGWFRQAPGTEREFVAAISGSGKITNYADSVKGRFTISRDHAKNTVFLQMDSLKPEDTAVYYCAGYLRSPYYSSFYDSAKYEYWGQGTQVTVSS | 1.36 | no binding (tested: 500 nM to 160 pM) | 0.306 |  |  |  |  |  |
| RANKL133 (VHH, Bivalent Nanobody; also called RANKL13-30GS-RANKL13) EVQLVESGGGLVQAGGSLRLSCAASGRTFRSYPMGWFRQAPGKEREFVASITGSGGSTYYADSVKGRFTISRDNAKNTVYLQMNSLRPEDTAVYSCAAYIRPDTYLSRDYRKYDYWGQGTQVTVSSGGGGSGGGGSGGGGSGGGGSGGGGSGGGGSEVQLVESGGGLVQAGGSLRLSCAASGRTFRSYPMGWFRQAPGKEREFVASITGSGGSTYYADSVKGRFTISRDNAKNTVYLQMNSLRPEDTAVYSCAAYIRPDTYLSRDYRKYDYWGQGTQVTVS |  |  |  |  |  |  |  | 0.026 |
| RANKL22 (VHH, also called 7D12; not shown: c-myc and His6 tags) VHH: EVQLVESGGGLMQTGGSLRLSCAASERTSRNYGMGWFRQAPGKEREFVAAITSAGGTTYYGDFVKGRFTISRDSAKYTVYLQMNSLKPEDTAVYWCAAKLQIGGRWHNLNDYGYRGQGTQVTVSS | 3.02 | no binding (tested: 500 nM to 160 pM) | 0.379 |  |  |  |  |  |
| RANKL23 (VHH, also called 9H5; not shown: c-myc and His6 tags) VHH: EVQLVESGGGLVQAGGSLRLSCAASGLTTVYTMAWFRQAPGKEREFVAAITRSGKTTYYADSVKGRFTISRDNAKNTVNLQMNSLKPDDTAVYYCAAKALLGMTNPAGYEYWGQETQVTVSS | 3.53 | no binding (tested: 500 nM to 160 pM) | 0.679 |  |  |  |  |  |

Results, then the binder that gave them:

| IC50 (human RANK-L [1]) [nM] | binding result (mouse RANK-L) | EC50 (human RANK-L [2]) [nM] | IC50 (human RANK-L [3]) [nM] | Kd (human RANK-L [4]) [nM] | kon (human RANK-L [4]) [M⁻¹ s⁻¹] | koff (human RANK-L [5]) [s⁻¹] | IC50 (human RANK-L [6]) [nM] | Binder |
| --- | --- | --- | --- | --- | --- | --- | --- | --- |
| 0.582 | no binding (tested: 500 nM to 160 pM) | 0.38 |  |  |  |  |  | RANKL4 (VHH, not shown: c-myc and His6 tags) VHH: KVQLVESGGGLVQTGDSLRLSCAASGRAIGSYAMGWFRQAPGKEREFVAVINYRGSSLKYADRVKGRFTISRDNAKNMVYLQMNSLKPDDTAVYYCAAQTSGADFGTTPQRYTYWGQGTQVTVSS |
| 0.627 | no binding (tested: 500 nM to 160 pM) | 0.399 |  |  |  |  |  | RANKL12 (VHH, not shown: c-myc and His6 tags) VHH: EVQLVESGGGWMQAGGSLRLSCAASGRTFTMAWFRQAPGKEREFVAAITGSGRSTYYTDSVKGRFTISRDNAKNTAYLQMKSLKPEDTAVYYCAGLRGLGLEYDSAKSYSYWGQGTQVTVSS |
| 0.739 | no binding (tested: 500 nM to 160 pM) | 0.619 |  |  |  |  |  | RANKL1 (VHH, not shown: c-myc and His6 tags) VHH: EVQLVESGGGLVQAGGSLRLSCAVSGRTFSSSTMAWFRQPPGGERDFVASISTSGTRTLYADSVKGRFTISRDNAKSTGYLQMNSLKPEDTAVYFCAAVNRRGWEFWRLASGYDYWGLGAQVTVSS |
| 0.737 | no binding (tested: 500 nM to 160 pM) | 0.453 |  |  |  |  |  | RANKL17 (VHH, not shown: c-myc and His6 tags) VHH: EVQLVESGGGLVQVGDSLRLSCEASGRSRFSTYVMGWFRQAPGKEREFVAAVSWSSGNAYYIDSAKGRFATSRDTAKNIMYLQMNSLKPEDTAVYTCAAGRGYGLLSEYTQAPRYDYWGQGTQVTVSS |
| 0.459 | no binding (tested: 500 nM to 160 pM) | 0.376 |  |  |  |  |  | RANKL7 (VHH, not shown: c-myc and His6 tags) VHH: EVQLVESEGGPVQSGGSLRLSCAASGRTFSVSTIAWFRQAPGEGREFVAAIYPSGRNAYVADSVKGRFTISRDNAKKTVYLQMNSLKPEDTAAYYCAAHQPSGSYYSAEAYAYWGQGTQVTVSS |
| 0.755 | no binding (tested: 500 nM to 160 pM) | 0.652 |  |  |  |  |  | RANKL8 (VHH, not shown: c-myc and His6 tags) VHH: EVQLVESGGGSVQPGGSLRLSCAASGGTFSRYAMGWFRQAPGKEREFVSAISVGGTYQYYVDSVKGRFTISRDNAESTVYLQMNSLKPEDTAVYYCAGDASPYGYLREYTATRFDYWGQGTQVTVSS |
| 1.17 | no binding (tested: 500 nM to 160 pM) | 0.517 |  |  |  |  |  | RANKL11 (VHH, not shown: c-myc and His6 tags) VHH: EVQLVESGGGLVQAGGSLRLSCAASGRTFSSKTMGWFRQPPGNEREFVAAITPTSRTTYYADSVKGRFTISRDNAKNTVSLQMNSLKFEDTAAYYCVAVRRYGSPPHDGSSYEYWGQGTQVTVSS |
